Source: US20060058231A1 (Xencor, published 2006)
Changes are numbered by the printed parent chain. In names and notes the source's numbering stands.

Key:
[1] = biological target: T1, ActRIIa receptor/Fc fusion (R&D Systems) (UniProt P27037 20-134, limits assumed); experiment: plate direct binding assay (ELISA-like): BMP-7 captured by anti-BMP-7 antibody, receptor-Fc titrated (x axis Receptor, ug/mL), anti-human IgG-HRP, absorbance 450 nm
T1 construct: not shown: Fc portion of the fusion

[2] = biological target: T2, BMPRIb receptor/Fc fusion (R&D Systems) (UniProt O00238 14-126); experiment: as above
T2 construct: also called ALK-6; not shown: Fc portion of the fusion
T2 sequence (looked up): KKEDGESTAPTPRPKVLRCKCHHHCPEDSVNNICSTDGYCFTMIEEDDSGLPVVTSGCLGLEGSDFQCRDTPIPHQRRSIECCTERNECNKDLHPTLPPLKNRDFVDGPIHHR

[3] = biological target: T3, BMPRII receptor/Fc fusion (R&D Systems) (UniProt Q13873 27-151, limits assumed); experiment: as above
T3 construct: not shown: Fc portion of the fusion
T3 sequence (looked up): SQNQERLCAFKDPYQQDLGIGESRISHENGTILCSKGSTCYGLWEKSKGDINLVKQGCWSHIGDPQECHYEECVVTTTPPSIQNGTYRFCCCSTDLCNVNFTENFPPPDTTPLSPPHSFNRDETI

[4] = biological target: T4, BMPRIa receptor/Fc fusion (R&D Systems) (UniProt P36894 24-152); experiment: as above
T4 construct: also called ALK-3; not shown: Fc portion of the fusion

[5] = biological target: T1, ActRIIa receptor/Fc fusion (R&D Systems); experiment: plate direct binding assay, receptor-Fc detection, 12-point dilution of conditioned media
Protocol: The affinity of human and variant BMP-7 for several BMP receptors (ActRIa, BMPRIb, ActRIIa, and BMPRII) was measured using an ELISA-like assay, described below. 96-well plates were coated with a capture antibody (R&D Systems BMP-7 ELISA Duoset DY354, part #840971) by diluting the antibody to 2 μg/mL in PBS, applying 50 μL/well, and incubating overnight or over the weekend at 4° C., in a humidified chamber. Excess liquid was removed from each plate. The plates were blocked by adding 175 μL blocking solution (1% BSA and 5% sucrose in PBS) to each well and incubating 1-2 hours at room temperature in a humidified chamber. The plates were then washed using an automated plate washer. 50 μL of BMP-7 containing solution (for example, diluted conditioned media obtained from the BMP-7 expression protocol above, or purified recombinant human BMP-7 of a known concentration) was added to each well and incubated 1.5-2 hours at room temperature in a humidified chamber. The plates were then washed using an automated plate washer. 50 μL of 5 μg/mL BMP receptor-Fc fusion in PBS was added to each well and incubated 1.5 hours at room temperature in a humidified chamber. The plates were then washed using an automated plate washer. 50 μL of 1:10,000 diluted anti-human IgG-HRP conjugate in secondary antibody dilution buffer (1% BSA in PBS, filtered through a 0.2 […] filter) was added to each well and incubated 30 minutes at room temperature in a humidified chamber. The plates were then washed using an automated plate washer. 50 μL of pre-mixed TMB substrate (BD Pharmingen #555214) was added to each well and incubated for 10-20 minutes at room temperature in the dark. 25 μL of 2N H₂SO₄ was added to each well. Absorbance readings at 450 nm were taken using a 540 nm wavelength correction.
To further characterize receptor binding, dose-response binding assays, using 12-point serial dilutions from conditioned media, were conducted for selected Library 1 variants.

[6] = biological target: T1, ActRIIa receptor/Fc fusion (R&D Systems); experiment: fluorescence anisotropy, labeled BMP-7 added to serial dilutions of receptor/Fc fusion (x axis [receptor] uM)
Protocol: (§1) The binding of selected variants to BMP receptors, antibodies, and inhibitors was characterized using a fluorescence binding assay and the AlphaScreen™ assay. […] Small-scale (25 uL) reactions were performed using 15 uM BMP-7 and dye concentrations ranging from 0.3 uM to 1000 uM. […] The reaction was quenched with Tris pH 8.0 and cleaned up using a PD-10 desalt column; the second fraction was used in the experiments described below. BMP-7 was also labeled with C6-FXS, a FITC-derived fluorophore with a 6-carbon spacer between the fluor and the NHS group. Labeling conditions with various ratios of protein to dye were tested, in 20 mM PO4, 500 mM NaCl, pH 7 solution. After establishing labeling conditions, 500 ug Y65N/S120D was labeled. Excess dye was removed by centrifugation and a PD-10 desalt column.
(§2) The flourescently labeled BMP-7 was added to serial dilutions of receptor/Fc fusions of the BMP-7 receptors ActRIa, BMPRIa, BMPRIb, ActRIIa, ActRIIb, and BMPRII (R&D Systems). Experiments were also performed in which the fluorescently labeled BMP-7 was added to serial dilutions of noggin/Fc or gremlin (R&D Systems). The labeled BMP-7 and receptor or inhibitor was allowed to incubate, and the fluorescence polarization and intensity was measured using a TopCount plate reader.

[7] = biological target: T5, ActRIIb receptor/Fc fusion (R&D Systems) (UniProt Q13705 19-134, limits assumed); experiment: as above
T5 construct: not shown: Fc portion of the bought fusion
Protocol: as §1, §2

[8] = biological target: T4, BMPRIa receptor/Fc fusion (R&D Systems); experiment: as above
Protocol: as §1, §2

T1 sequence (P27037 20-134 limits assumed): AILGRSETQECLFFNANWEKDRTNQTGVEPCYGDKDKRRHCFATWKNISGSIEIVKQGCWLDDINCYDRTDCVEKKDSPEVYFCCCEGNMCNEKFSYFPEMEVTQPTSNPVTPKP
T4 sequence (P36894 24-152 limits assumed): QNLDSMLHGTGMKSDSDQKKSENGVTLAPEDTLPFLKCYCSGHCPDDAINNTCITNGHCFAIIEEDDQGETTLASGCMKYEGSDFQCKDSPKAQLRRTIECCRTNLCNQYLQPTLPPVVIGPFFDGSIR
T5 sequence (Q13705 19-134 limits assumed): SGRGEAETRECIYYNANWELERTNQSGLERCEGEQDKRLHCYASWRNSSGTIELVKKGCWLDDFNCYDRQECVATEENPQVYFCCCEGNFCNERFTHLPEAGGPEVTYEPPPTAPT

B1: wild type human BMP-7 (Image clone) (ligand)
chain: STGGKQRSQNRSKTPKNQEALRMASVAENSSSDQRQACKKHELYVSFRDLGWQDWIIAPEGYAAYYCEGECAFPLNSYMNATNHAIVQTLVHFINPETVPKPCCAPTQLNAISVLYFDDSSNVILKKYRNMVVRACGCH
notes: The pro-protein is processed to a dimeric mature BMP-7; also called WT; wild-type BMP-7
EC50 (read off the curve) [1]: ~0.2 µg/mL | EC50 (read off the curve) [2]: ~0.7 µg/mL | EC50 (read off the curve) [3]: ~1 µg/mL | EC50 (read off the curve) [4]: ~1 µg/mL

B2: BMP-7 variant Q53G (ligand)
chain: B1 chain with Q53G
fold increased affinity relative to wild type [5]: ~10 fold

B3: FXS labeled BMP7 (ligand)
BMP-7 mature domain: B1 chain with Y65N, S120D
modifications: labeled with C6-FXS (FITC-derived NHS fluorophore); labeled sites not given
notes: the C6-FXS form of the labeled BMP-7 that the list holds jointly as 1.m9; also called BMP-7 variant Y65N/S120D labeled with C6-FXS
EC50 (read off the curve) [6]: ~3000 nM | EC50 (read off the curve) [7]: ~2000 nM | EC50 (read off the curve) [8]: ~1000 nM
